In US20230340132A1, “ANTI-ADENOSINE RECEPTOR (A2aR) ANTIBODIES” (NA Biotech Corp, priority 2020, published 2023):
Several values for one entry are separate records, joined by “and”; a condition that tells them apart may be missing. Identical values can stand only once. Entries after “also recorded” stand apart in the source; their conditions may differ.

T1: human adenosine receptor A3 (Homo sapiens, UniProt P0DMS8)
T1 construct: FLAG
T1 sequence (P0DMS8 1-318): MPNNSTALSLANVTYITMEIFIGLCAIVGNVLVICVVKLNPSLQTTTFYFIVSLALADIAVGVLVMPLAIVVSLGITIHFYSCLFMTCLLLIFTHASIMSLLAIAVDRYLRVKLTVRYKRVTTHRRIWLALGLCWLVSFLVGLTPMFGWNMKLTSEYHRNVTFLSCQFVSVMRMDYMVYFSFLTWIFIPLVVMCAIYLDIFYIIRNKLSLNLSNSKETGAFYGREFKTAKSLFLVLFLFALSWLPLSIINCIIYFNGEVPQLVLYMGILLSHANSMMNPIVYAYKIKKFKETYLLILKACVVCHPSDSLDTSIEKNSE

T2: human adenosine receptor A1 (Homo sapiens, UniProt P30542)
T2 construct: FLAG
T2 sequence (P30542 1-326): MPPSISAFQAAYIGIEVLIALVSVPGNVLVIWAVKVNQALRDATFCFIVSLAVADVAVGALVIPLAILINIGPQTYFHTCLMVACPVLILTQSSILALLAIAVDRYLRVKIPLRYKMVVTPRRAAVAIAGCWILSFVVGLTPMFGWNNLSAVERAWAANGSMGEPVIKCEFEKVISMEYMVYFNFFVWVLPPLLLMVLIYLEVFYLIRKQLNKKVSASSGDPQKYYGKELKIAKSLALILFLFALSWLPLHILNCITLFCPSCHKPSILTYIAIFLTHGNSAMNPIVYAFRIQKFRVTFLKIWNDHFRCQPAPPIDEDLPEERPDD

T3: human adenosine receptor A2B (Homo sapiens, UniProt P29275)
T3 construct: FLAG
T3 sequence (P29275 1-332): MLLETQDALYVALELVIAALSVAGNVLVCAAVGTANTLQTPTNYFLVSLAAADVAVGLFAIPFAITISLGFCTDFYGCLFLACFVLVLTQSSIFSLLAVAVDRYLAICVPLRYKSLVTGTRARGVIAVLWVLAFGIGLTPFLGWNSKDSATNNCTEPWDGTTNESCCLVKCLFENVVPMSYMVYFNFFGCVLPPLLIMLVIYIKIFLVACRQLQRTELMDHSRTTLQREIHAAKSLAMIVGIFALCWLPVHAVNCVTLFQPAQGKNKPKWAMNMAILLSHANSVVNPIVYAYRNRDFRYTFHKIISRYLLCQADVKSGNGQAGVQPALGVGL

B1: 3F6-9G5: anti-human A2aR monoclonal antibody from mouse hybridoma clone; HCVR SEQ ID NO: 36, LCVR SEQ ID NO: 42 (antibody, V domains shown)
VH: QVQLQQPGTELVKPGAPVRLSCKASGFAFTSYWMNWVRQRPGRGLEWIGRIDPSDSEAHYHHKFWGKATLTVDKSSSTVYIQLNGLTSEDSAVYYCLRSLYGKGDYWGHGTTLTVSS
VL: DVLMTQTPLSLSVRLGDQASISCRSSQSLVHRNGNTYLEWYLQRPGQSPKLLIYKVSNRFSGVPDRFSGSGSGTDFTLKISRVEAEDLGVYYCYQGSHVPLTFGSGTKLEIK
B2: anti-human A2aR monoclonal antibody 1B5-3D7 (antibody, V domains shown)
VH: QVQLQQPGTELVKPGAPVKLSCKTSGFTFTRFWMNWVRQRPGRGLEWIGRIDPYDSETQYNHKFWDRATLTVDKSSSTVYIQLSSLTSEDSAVYYCGRSLYGKGDYWGQGTTLTVSS
VL: DVLMTQSPLSLPVSLGDQASISCRSSQSIVHSNGNTYLEWYLQRPGQSPKLLIYKVSNRFSGVPDRFSGSGSGTYFTLRISRVEAEDLGIYYCFQGSHVPLTFGSGTTLELK
notes: Tested as whole mouse IgG2a / kappa, purified from hybridoma supernatant or made recombinantly in Expi293 cells; also called 1B-3D7

Key:
[1] = biological target: T1, human adenosine receptor A3; experiment: flow cytometry-based cell-binding assay, HEK293T-A3; conditions: duplicate
Procedure: (§1) To test the specificity of the antigen binding molecules of the invention, e.g., anti-A2aR antibodies or antigen binding fragments thereof to human A2aR and not towards any of the other 3 adenosine receptor family members, a flow cytometry-based cell-binding assay was performed by Multispan Inc (Hayward, CA). HEK293T cells stably expressing various adenosine receptors, i.e., human A1R, A2bR, and A3R, and mouse A2R, generated by Multispan Inc and HEK293T parental cell lines were used in the assay. Briefly, adenosine receptor-overexpressing cell lines and HEK293T parental cell lines were incubated with 2, 10, and 50 nM of anti-human A2aR monoclonal antibodies (clones 1B5-3D7 and 3F6-9G5) and 10 and 50 nM of mouse IgG2a Isotype control at 4° C. in the dark for 60 minutes. Anti-FLAG antibody (Abcam, ab72469, 2 μg/mL) was used as positive control for cell lines over-expressing various adenosine receptors, respectively. After 3 washes with FACS buffer (PBS plus 0.1% BSA and 0.2% sodium azide), cells were stained with an anti-mouse-IgG-PE (Invitrogen, cat. P852) detection antibody for 45 minutes at 4° C. The cells were then washed 3 times with FACS buffer and analyzed on FACSort (Becton Dickinson). Data was analyzed using CellQuest Pro (Becton Dickinson).

[2] = test system: HEK293T cell without exogenous adenosine receptor; experiment: flow cytometry-based cell-binding assay, parental HEK293T; design: species or system human; conditions: duplicate
Procedure: as §1

[3] = biological target: T4, human A2aR (Homo sapiens, UniProt P29274); experiment: FACS binding titration on hA2aR-Expi293 cells; conditions: 12-point 1:2 serial dilution starting from 7.5 ug/ml
T4 construct: expressed in transfected cells; host or cells: Expi293
Procedure: (§2) Human A2aR-expressing Expi293 cells or parental Expi293 cells were first added to 96-well plate (1×10^5 cells per well). Fifty microliters (50 μl) of 12-point 1:2 serial diluted samples starting from 7.5 ug/ml for each antibody was incubated with cells for 30 minutes on ice. After being washed with FACS buffer (2% Fetal bovine serum in DPBS), […] of Alex Fluor 633-conjugated anti mouse IgG (Life technology, Cat.A21050) or Alex Fluor 647-conjugated anti-human IgG was added and incubated for 30 minutes on ice. Cells were resuspended with 100 μl of FACS buffer after two washes. One hundred microliters 100 μl of 1:50 diluted 7-AAD for live/dead staining was added to the cell suspension, which was ready for FACS analysis (BD Accuri C6 plus or LSR II Flow Cytometer, HTS).

[4] = biological target: T2, human adenosine receptor A1; experiment: flow cytometry-based cell-binding assay, HEK293T-A1; conditions: for Geo Mean: HEK293T-A1, duplicate; for binding to HEK293T-A1 relative to binding to human A2aR (in words): summary of Table 12
Procedure: as §1

[5] = test system: parental Expi293 cells; experiment: FACS binding titration on parental Expi293 cells; conditions: 12-point 1:2 serial dilution starting from 7.5 ug/ml
Procedure: as §2

[6] = biological target: T3, human adenosine receptor A2B; experiment: flow cytometry-based cell-binding assay, HEK293T-A2B; conditions: duplicate
Procedure: as §1

[7] = biological target: T5, mouse adenosine receptor A2A (Mus musculus, UniProt Q60613); experiment: flow cytometry-based cell-binding assay, HEK293T-mA2A; conditions: duplicate
T5 construct: FLAG
Procedure: as §1

T4 sequence (P29274 whole entry): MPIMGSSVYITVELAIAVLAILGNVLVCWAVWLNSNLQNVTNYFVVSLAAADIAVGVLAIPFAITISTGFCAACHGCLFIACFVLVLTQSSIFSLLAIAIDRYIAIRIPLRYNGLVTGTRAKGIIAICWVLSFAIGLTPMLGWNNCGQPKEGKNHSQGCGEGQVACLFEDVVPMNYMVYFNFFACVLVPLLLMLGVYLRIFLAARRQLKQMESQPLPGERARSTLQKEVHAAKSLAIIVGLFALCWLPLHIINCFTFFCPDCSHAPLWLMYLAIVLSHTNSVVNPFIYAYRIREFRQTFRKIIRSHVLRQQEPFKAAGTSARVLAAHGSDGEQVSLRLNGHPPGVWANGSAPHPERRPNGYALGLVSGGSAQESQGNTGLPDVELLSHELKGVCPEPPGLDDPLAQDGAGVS
T5 sequence (Q60613 whole entry): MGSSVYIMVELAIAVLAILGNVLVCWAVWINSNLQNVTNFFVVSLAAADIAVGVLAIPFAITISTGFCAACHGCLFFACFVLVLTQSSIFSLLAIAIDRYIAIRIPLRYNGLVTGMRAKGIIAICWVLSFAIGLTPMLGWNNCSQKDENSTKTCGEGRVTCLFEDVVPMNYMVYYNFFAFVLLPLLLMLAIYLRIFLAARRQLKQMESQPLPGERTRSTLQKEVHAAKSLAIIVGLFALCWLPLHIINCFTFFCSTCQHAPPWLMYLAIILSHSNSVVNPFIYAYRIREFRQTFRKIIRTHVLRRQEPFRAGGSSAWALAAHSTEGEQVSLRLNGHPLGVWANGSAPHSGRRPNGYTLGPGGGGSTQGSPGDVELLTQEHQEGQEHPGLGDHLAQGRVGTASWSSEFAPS

Molecule | Geo Mean ([1]; 2 nM) | Geo Mean ([1]; 10 nM) | Geo Mean ([1]; 50 nM) | Geo Mean ([2]; 2 nM) | Geo Mean ([2]; 10 nM) | Geo Mean ([2]; 50 nM) | binding to hA2aR-Expi293 (FIG. 5) [3] | Geo Mean ([4]; 2 nM) | Geo Mean ([4]; 10 nM) | Geo Mean ([4]; 50 nM) | binding to HEK293T-A1 relative to binding to human A2aR (in words) [4] | binding to parental Expi293 (FIG. 5) [5] | Geo Mean ([6]; 2 nM) | Geo Mean ([6]; 50 nM) | Geo Mean ([7]; 2 nM) | Geo Mean ([7]; 10 nM) | Geo Mean ([7]; 50 nM)
B1 | 2.07 and 1.96 | 2.49 and 2.33 | 2.66 and 2.25 | 3.98 and 4.33 | 4.01 and 4.27 | 4.19 and 6.16 | strong dose-dependent specific binding; also recorded: specifically binds | 8.35 and 8.81 | 15.26 and 15.56 | 22.97 and 22.51 | significantly weaker | not to parental Expi293 | 3.13 and 2.8 | 7.27 and 3.74 | 2.9 and 3.08 | 3.7 and 3.25 | 4.98 and 4.76
B2 | 2.11 and 2.09 | 2.23 and 2.32 | 2.45 and 2.3 | 3.69 and 4.11 | 5.42 and 4.07 | 5.24 and 4.96 | strong dose-dependent specific binding; also recorded: specifically binds | 10.15 and 11.83 | 18.4 and 24.97 | 27.59 and 30.66 | significantly weaker | not to parental Expi293 | 5.42 and 3.8 | 3.42 and 2.79 | 2.96 and 3.82 | 4.13 and 6.16 | 3.48 and 6.03
